Patent US12076390 (Dana-Farber, dated 2024)

Columns and labels:
[1] = target: HA on infectious virus A/Brisbane/10/07 (H3N2-BR07) (influenza A virus A/Brisbane/10/07 …); assay: cell-based or functional assay
[2] = target: HA of A/Vietnam/1203/04 on pseudotyped virus (H5-VN04 pseudovirus) (influenza A virus A/Vietnam/1203/04 …); assay: cell-based or functional assay
[3] = target: DTT reduced, trimeric HA2 (tHA2) of surface-expressed H3-A2/68 (influenza A virus A/Aichi/2/68 (H3N2), UniProt P03437 346-566); assay: flow cytometry on HA-transfected cells after trypsin, pH 4.9 and DTT
[4] = target: Cell surface-expressed HA of A/Aichi/2/68 (H3-A2/68) (influenza A virus A/Aichi/2/68 (H3N2), UniProt P03437 17-566); assay: flow cytometry on HA-transfected cells
[5] = target: Recombinant full length HA of H1 A/Puerto Rico/8/34 (H1-PR8) (influenza A virus A/Puerto Rico/8/34 …, UniProt P03452 18-565); assay: recombinant HA; footnote says SPR biosensor, methods describe BLI
[6] = target: Recombinant full length HA of H1 A/Solomon Islands/3/06 (H1-SI06) (influenza A virus A/Solomon …); assay: as above
[7] = target: Recombinant full length HA of H14 A/mallard/Astrakhan/263/82 (H14-AS82) (influenza A virus …, UniProt P26136 18-568); assay: as above

B1: 3I14 IgG1 (antibody, V domains shown)
VH: QVQLLESGGGVVQPGRSLRLSCAASGFTFSNYGMHWVRQAPGKGLEWVAIISFDGSKKYYANSVKGRSTISRDNSKNTLSLQMNSLGPEDTALYYCAKLPSPYYFDSRFVWVAASAFHFWGQGILVTVSS
VL: NFMLTQPPSASGTPGQRVTISCSGSSSNIGGNTVHWFQQLPGTAPKLLIYTNSLRPSGVPDRFSGSKSGTSASLAISGLQSEDEADYYCAAWDDSLNGQVFGGGTKLTVL
Q: With B1 as the binder, how does the “IC50, neutralization of infectious H3-BR07 virus” value [1] read?
A: 0.305 µg/mL

Q: And the “IC50, neutralization of H5-VN04 pseudovirus” value [2]?
A: 0.0816 µg/mL

Q: And the “IC50, neutralization of pseudovirus” value [2]?
A: 2.14 µg/mL

Q: Does B1 bind [3]?
A: no binding

Q: Does B1 bind [4]?
A: binds

Q: And the Kd [5]?
A: 0.08 nM

Q: And the Kd [6]?
A: 0.03 nM

Q: And the Kd [7]?
A: 0.29 nM
